Experimental data: article doi:10.1101/847772

Target: biotin-labelled M3C phenomycin (Streptomyces fervens MA 564-Cl)
Assay: BLI

## human 80S ribosome (complex)
  Kd: 23 pM
